From IntAct's records for PubMed 29039417 come the findings set out here.

To fix the notation:
B1: BBSome complex member BBS4 (Homo sapiens), Q96RK4 (parent)
chain: MAEERVATRTQFPVSTESQKPRQKKAPEFPILEKQNWLIHLHYIRKDYEACKAVIKEQLQETQGLCEYAIYVQALIFRLEGNIQESLELFQTCAVLSPQSADNLKQVARSLFLLGKHKAAIEVYNEAAKLNQKDWEISHNLGVCYIYLKQFNKAQDQLHNALNLNRHDLTYIMLGKIHLLEGDLDKAIEVYKKAVEFSPENTELLTTLGLLYLQLGIYQKAFEHLGNALTYDPTNYKAILAAGSMMQTHGDFDVALTKYRVVACAVPESPPLWNNIGMCFFGKKKYVAAISCLKRANYLAPFDWKILYNLGLVHLTMQQYASAFHFLSAAINFQPKMGELYMLLAVALTNLEDIENAKRAYAEAVHLDKCNPLVNLNYAVLLYNQGEKKNALAQYQEMEKKVSLLKDNSSLEFDSEMVEMAQKLGAALQVGEALVWTKPVKDPKSKHQTTSTSKPASFQQPLGSNQALGQAMSSAAAYRTLPSGAGGTSQFTKPPSLPLEPEPAVESSPTETSEQIREK
partner: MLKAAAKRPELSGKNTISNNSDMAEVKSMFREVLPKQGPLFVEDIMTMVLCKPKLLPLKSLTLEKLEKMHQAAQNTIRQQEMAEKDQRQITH

The variants in this test derive from B1. Conditions: with bbip1_human BBIP1, A8MTZ0.
Take MAEERVATRTQFPVSTESQKPRQKKAPEFPILEKQNWLIHLHYIRKDYEACKAVIKEQLQETQGLCEYAIYVQALIFRLEGNIQESLELFQTCAVLSPQSADNLKQVARSLFLLGKHKAAIEVYNEAAKLNQKDWEISHNLGVCYIYLKQFNKAQDQLHNALNLNRHDLTYIMLGKIHLLEGDLDKAIEVYKKAVEFSPENTELLTTLGLLYLQLGIYQKAFEHLGNALTYDPTNYKAILAAGSMMQTHGDFDVALTKYRVVACAVPESPPLWNNIGMCFFGKKKYVAAISCLKRANYLAPFDWKILYNLGLVHLTMQQYASAFHSLSAAINFQPKMGELYMLLAVALTNLEDIENAKRAYAEAVHLDKCNPLVNLNYAVLLYNQGEKKNALAQYQEMEKKVSLLKDNSSLEFDSEMVEMAQKLGAALQVGEALVWTKPVKDPKSKHQTTSTSKPASFQQPLGSNQALGQAMSSAAAYRTLPSGAGGTSQFTKPPSLPLEPEPAVESSPTETSEQIREK [F326S]: the “effect of a mutation on the interaction” value was “disrupting interaction strength”.
Turning to MAEERVATRTQFPVSTESQKPRQKKAPEFPILEKQNWLIHLHYIRKDYEACKAVIKEQLQETQGLCEYAIYVQALIFRLEGNIQESLELFQTCAVLSPQSADNLKQVARSLFLLGKHKAAIEVYNEAAKLNQKDWEISHNLGVCYIYLKQFNKAQDQLHNALNLNRHDLTYIMLGKIHLLEGDLDKAIEVYKKAVEFSPENTELLTTLGLLYLQLGIYQKAFEHLGNALTYDPTNYKAILAAGSMMQTHGDFDVALTKYRVVACAVPESPPLWNNIGMCFFGKKKYVAAISCLKRANYLAPFDWKILYNLGLVHLTMQQYASAFHFKSAAINFQPKMGELYMLLAVALTNLEDIENAKRAYAEAVHLDKCNPLVNLNYAVLLYNQGEKKNALAQYQEMEKKVSLLKDNSSLEFDSEMVEMAQKLGAALQVGEALVWTKPVKDPKSKHQTTSTSKPASFQQPLGSNQALGQAMSSAAAYRTLPSGAGGTSQFTKPPSLPLEPEPAVESSPTETSEQIREK [L327K], the “effect of a mutation on the interaction” value was “with no effect”.
In the case of MAEERVATRTQFPVSTESQKPRQKKAPEFPILEKQNWLIHLHYIRKDYEACKAVIKEQLQETQGLCEYAIYVQALIFRLEGNIQESLELFQTCAVLSPQSADNLKQVARSLFLLGKHKAAIEVYNEAAKLNQKDWEISHNLGVCYIYLKQFNKAQDQLHNALNLNRHDLTYIMLGKIHLLEGDLDKAIEVYKKAVEFSPENTELLTTLGLLYLQLGIYQKAFEHLGNALTYDPTNYKAILAAGSMMQTHGDFDVALTKYRVVACAVPESPPLWNNIGMCFFGKKKYVAAISCLKRANYLAPFDWKILYNLGLVHLTMQQYASAFHFESAAINFQPKMGELYMLLAVALTNLEDIENAKRAYAEAVHLDKCNPLVNLNYAVLLYNQGEKKNALAQYQEMEKKVSLLKDNSSLEFDSEMVEMAQKLGAALQVGEALVWTKPVKDPKSKHQTTSTSKPASFQQPLGSNQALGQAMSSAAAYRTLPSGAGGTSQFTKPPSLPLEPEPAVESSPTETSEQIREK [L327E] it was “with no effect”; in that of MAEERVATRTQFPVSTESQKPRQKKAPEFPILEKQNWLIHLHYIRKDYEACKAVIKEQLQETQGLCEYAIYVQALIFRLEGNIQESLELFQTCAVLSPQSADNLKQVARSLFLLGKHKAAIEVYNEAAKLNQKDWEISHNLGVCYIYLKQFNKAQDQLHNALNLNRHDLTYIMLGKIHLLEGDLDKAIEVYKKAVEFSPENTELLTTLGLLYLQLGIYQKAFEHLGNALTYDPTNYKAILAAGSMMQTHGDFDVALTKYRVVACAVPESPPLWNNIGMCFFGKKKYVAAISCLKRANYLAPFDWKILYNLGLVHLTMQQYASAFHFRSAAINFQPKMGELYMLLAVALTNLEDIENAKRAYAEAVHLDKCNPLVNLNYAVLLYNQGEKKNALAQYQEMEKKVSLLKDNSSLEFDSEMVEMAQKLGAALQVGEALVWTKPVKDPKSKHQTTSTSKPASFQQPLGSNQALGQAMSSAAAYRTLPSGAGGTSQFTKPPSLPLEPEPAVESSPTETSEQIREK [L327R], “disrupting interaction strength”.
In the case of MAEERVATRTQFPVSTESQKPRQKKAPEFPILEKQNWLIHLHYIRKDYEACKAVIKEQLQETQGLCEYAIYVQALIFRLEGNIQESLELFQTCAVLSPQSADNLKQVARSLFLLGKHKAAIEVYNEAAKLNQKDWEISHNLGVCYIYLKQFNKAQDQLHNALNLNRHDLTYIMLGKIHLLEGDLDKAIEVYKKAVEFSPENTELLTTLGLLYLQLGIYQKAFEHLGNALTYDPTNYKAILAAGSMMQTHGDFDVALTKYRVVACAVPESPPLWNNIGMCFFGKKKYVAAISCLKRANYLAPFDWKILYNLGLVHLTMQQYASAFHFASAAINFQPKMGELYMLLAVALTNLEDIENAKRAYAEAVHLDKCNPLVNLNYAVLLYNQGEKKNALAQYQEMEKKVSLLKDNSSLEFDSEMVEMAQKLGAALQVGEALVWTKPVKDPKSKHQTTSTSKPASFQQPLGSNQALGQAMSSAAAYRTLPSGAGGTSQFTKPPSLPLEPEPAVESSPTETSEQIREK [L327A] it was “with no effect”; in that of MAEERVATRTQFPVSTESQKPRQKKAPEFPILEKQNWLIHLHYIRKDYEACKAVIKEQLQETQGLCEYAIYVQALIFRLEGNIQESLELFQTCAVLSPQSADNLKQVARSLFLLGKHKAAIEVYNEAAKLNQKDWEISHNLGVCYIYLKQFNKAQDQLHNALNLNRHDLTYIMLGKIHLLEGDLDKAIEVYKKAVEFSPENTELLTTLGLLYLQLGIYQKAFEHLGNALTYDPTNYKAILAAGSMMQTHGDFDVALTKYRVVACAVPESPPLWNNIGMCFFGKKKYVAAISCLKRANYLAPFDWKILYNLGLVHLTMQQYASAFHFHSAAINFQPKMGELYMLLAVALTNLEDIENAKRAYAEAVHLDKCNPLVNLNYAVLLYNQGEKKNALAQYQEMEKKVSLLKDNSSLEFDSEMVEMAQKLGAALQVGEALVWTKPVKDPKSKHQTTSTSKPASFQQPLGSNQALGQAMSSAAAYRTLPSGAGGTSQFTKPPSLPLEPEPAVESSPTETSEQIREK [L327H], “disrupting interaction strength”.
